US11066655B2, “RNA polymerase, methods of purification and methods of use” (President and Fellows of Harvard College, priority 2013, dated 2021)

Legend:
Type in all cases: biochemical
[1] = tested on: DNA templates S5P-tDNAR or T7P-tDNAR; assay: Synthesis of tRNA^Arg at preparative scale, sequencing gel; conditions: 200 µl reaction, 37° C.
Description: FIGS. 11A-11B depict synthesis of tRNA^Arg by Syn5 and T7 RNA polymerase. A) Synthesis of tRNA^Arg at analytical scale by various amounts of Syn5 and T7 RNA polymerase. Using radioactively labeled CTP, the tRNA^Arg and N+1 product (as marked) produced by 22, 67, 200 nM Syn5 and T7 RNA polymerase at 37° C. are shown. […] The DNA encoding E. coli tRNA^ArgACG is directly downstream of a Syn5 or T7 promoter for the cognate RNA polymerase to synthesize run-off tRNA transcript. B) Synthesis of tRNA^Arg at preparative scale by Syn5 and T7 RNA polymerase. The sequencing gel is showing the analysis of the total RNA products by Syn5 and T7 RNAP at 37° C. in a 200 µl reaction. […]
For the results shown in FIG. 11A, reaction mixtures (10 μl) containing 40 mM Tris-HCl pH 8.0, 6 mM MgCl2, 2 mM spermidine, 10 mM DTT, 200 µM[…]P, GTP and UTP, 10 µM [[…]-^32P]CTP, 1.5 U/µl RNaseOUT™ recombinant ribonuclease inhibitor, 0.5 μM DNA templates S5P-tDNAR or T7P-tDNAR, and various amount of Syn5 or T7 RNAP were incubated at 37° C. for 30 min before adding of one unit of DNase I to each reaction mixture and an additional incubation of 15 min at 37° C. […] After electrophoresis, gels were dried and analyzed using a Fuji BAS 1000 Bioimaging Analyzer. […] RNA quantification was based on OD260 measurement using NANOPHOTOMETER (IMPLEN). […]

[2] = tested on: pET24-S5RNAP DNA; assay: Catalytic efficiency at various ribonucleotide concentrations (filter-binding assay); conditions: for kcat/KmGTP / Km / kcat: GTP varied; for Km / KmGTP (results obtained with UTP): other NTPs 1 mM; for Km: 24° C., 5 min, read-out: apparent Km for GTP; for Km / kcat: 160 mM KCl for Syn5 RNAP, omitted for T7 RNAP; for kcat/KmGTP (results obtained with UTP) / kcatGTP (results obtained with UTP) / KmGTP (results obtained with UTP): UTP varied; for kcatGTP (results obtained with UTP) / KmGTP (results obtained with UTP): FIG. 7C/7D
Description: FIGS. 7A-7D depict a comparison of transcription efficiency of Syn5 and T7 RNAP at various ribonucleotide concentrations. A) Incorporation of NMP by Syn5 RNAP at various GTP concentrations. B) Incorporation of NMP by T7 RNAP at various GTP concentrations. C) Incorporation of NMP by Syn5 RNAP at various UTP concentrations. D) Incorporation of NMP by T7 RNAP at various UTP concentrations. Varied ribonucleotide concentrations were 7.8, 15.6, 31.3, 62.5, 125, 250, 500, 1000 µM while other NTPs were all at 1 mM, RNAP and template were both 20 nM, and the reaction time was 5 min at 24° C. 160 mM KCl was added for Syn5 RNAP reactions.
For the assays described in FIG. 7, reaction mixtures contained 40 mM Tris-HCl (pH 8.0), 6 mM MgCl2, 2 mM spermidine, 10 mM DTT, 20 nM Syn5 or T7 RNAP, 20 nM pET24-S5RNAP DNA, 1 mM ^3H-ATP (20 cpm/pmole), CTP, UTP (or GTP), and varying amounts of GTP (or UTP). 160 mM KCl was added for the Syn5 RNAP reactions. After various times the reactions were stopped by the addition of 20 mM EDTA. 4 µl of the mixtures were then loaded onto Whatman DE81 filter paper disks and the disks were washed to remove the unincorporated ^3H-ATP. The amount of insoluble ^3H-AMP, corresponding to nucleotides incorporated into newly synthesized RNA, was measured using a scintillation counter. The data were analyzed using Prism software.

[3] = tested on: E. coli total aminoacyl-tRNA synthetases; assay: tRNA aminoacylation assay of RNAP products; conditions: for desired (functional) tRNA in total RNA products: without gel extraction, maximum charging at 30 min
Description: FIGS. 11A-11B depict synthesis of tRNA^Arg by Syn5 and T7 RNA polymerase. A) Synthesis of tRNA^Arg at analytical scale by various amounts of Syn5 and T7 RNA polymerase. Using radioactively labeled CTP, the tRNA^Arg and N+1 product (as marked) produced by 22, 67, 200 nM Syn5 and T7 RNA polymerase at 37° C. are shown. […] The DNA encoding E. coli tRNA^ArgACG is directly downstream of a Syn5 or T7 promoter for the cognate RNA polymerase to synthesize run-off tRNA transcript. B) Synthesis of tRNA^Arg at preparative scale by Syn5 and T7 RNA polymerase. The sequencing gel is showing the analysis of the total RNA products by Syn5 and T7 RNAP at 37° C. in a 200 µl reaction. RNAs were purified by either ZYMO RNA clean kit or phenol/chloroform extraction followed by ethanol precipitation (P/C/E), as noted on top of the gel. The native tRNA^Arg (with modifications) overexpressed and purified from E. coli cells was used as a size marker. The two major bands in the total RNAs are tRNA^Arg and N+1 product as marked.
tRNA Aminoacylation Assay tRNA aminoacylation assay was performed as described previously (Tan et al.). A reaction containing 100 mM Tris-HCl, pH 7.5, 30 mM KCl, 12 mM MgCl2, 0.5 mM DTT, 4 mM ATP, 0.2 […]RNA (purified native E. coli tRNA^Arg (Zhu et al. (2012)), or purified tRNA^Arg transcripts from Syn5 or T7 RNAP reaction using RNA Clean & Concentrator™-5 kit), 15 µM [^3H] arginine (15 Ci/mmol), and 4 µM E. coli total aminoacyl-tRNA synthetases was incubated at 37° C. for the indicated time period. 5 µl reaction mixtures were spotted onto Whatman DE(81) filters and reactions stopped by 10% TCA solution containing 0.5 mM arginine. The filters were washed twice with 10% TCA and once with ethanol, and then dried. The amount of amino acid charged to tRNA was determined by measuring radioactivity remained on the filters.

| Molecule | N+1 products in total products [1] | kcat/KmGTP [2] [M⁻¹ s⁻¹] | Km [2] [µM] | kcat [2] [s⁻¹] | kcat/KmGTP (results obtained with UTP) [2] [M⁻¹ s⁻¹] | kcatGTP (results obtained with UTP) [2] [s⁻¹] | KmGTP (results obtained with UTP) [2] [µM] | desired (functional) tRNA in total RNA products [3] [%] | amino acid charging activity of products ([3]; [3H] arginine, 37° C.) |
| --- | --- | --- | --- | --- | --- | --- | --- | --- | --- |
| T7 RNAP: RNA polymerase encoded by bacteriophage T7, from New England Biolabs [reference compound] | more than 50% | 90000 | 45.8 ± 9 | 4.1 | 290000 | 6.8 | 23.3 ± 5.5 | 15 |  |
| Syn5 RNAP: single subunit DNA-dependent RNA polymerase from marine cyanophage Syn5, amino acid sequence SEQ ID NO:23 (protein, Amino acid sequence of a cyanophage Syn5 RNAP) MSFDLIARQLQRETEAAELARKRLQDARREANERSYASSNIESRKAIATFLDPIAQRIGERLFTLRRGTGAVDAAEVYKHLKNADHHHLALITMKTALDVLGKDPEPQIQQLTTAIGRNIQLELRLTYYAEENPELYKQASRFFHAGTGTRQKATVIKLKFNREGIEWDQWSRVTCHKVGQWLMLAMADVTGWIERATDRTSGGRKTKTRICYSREFLQHRDTILAAAEQLAFCQWPMLCPPIEWSNDHNGGYLSEQIRRVNPLIRKTGPLGTRKQGDIPLAMLNNLQGQAYKVNPEVLDIANHCYESNVTVGKFIRHAPLPVPPSPGEDCTEDQLTAYKRARREAEDFNAQISQKNWRTTEVMYVARKYADEASFWMPASFDYRGRVYFLNTALNPQGTDFDKALLYFAEEGPVNEWWLSFHVATTYGLDKETMVNRVQWARDNHELIDRIASDPVRHTEWHDADEPWCFLAACLEYKACVIDGTKQTSGLPIGIDATCSGLQHLAAMTRCGRTAALVNVTPTDKPADAYKTVAQASLKHLPKEQHEWITRKVTKRPVMCTPYGVTMSSARGYIRDQLVKDGHKEDLRSPGVLNGIVKAIFNEAIPEVIPGPVQVMAWLKRSAGQIIDRGDSTITWTTPSGFEVVQDLKKSKTYEVKTRIMGGARIKLQVGDGFTDEPDRDHHKSALAPNVVHSNDASLLHLTFAFWDKPFTVIHDCVLGRSCDMDQMGSDIRLHFAEMYKADVMQDWADQVGVELPVDLIKNTLDIDSVNQSLYFFS | negligible | 180000 | 13.9 ± 5.6 | 2.5 | 380000 | 2.8 | 7.4 ± 1.5 | 40 | much higher than that obtained from the T7 RNAP reaction |
